For one data set, the target named is T1, alpha-lactalbumin (UniProt P00711).
T1 sequence: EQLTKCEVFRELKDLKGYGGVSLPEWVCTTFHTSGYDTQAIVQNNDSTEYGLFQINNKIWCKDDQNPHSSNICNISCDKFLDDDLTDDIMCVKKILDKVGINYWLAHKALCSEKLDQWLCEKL
As to the kind of experiment: QCM bond rupture sandwich. To be noted: 100 ng/mL; sandwich with aptamer II beads; 5'-SH-(CH2)6; 30 °C, 70 min per binding step; aptamer I 3 μmol/L on gold with MCH block; aptamer II beads stored in 10 mmol/L PBS; binding buffer, salt and pH not stated.

The target of data set [1] is T2, lactoferrin (LF) (UniProt P24627 20-708). As to the kind of experiment: QCM bond rupture sandwich; cyclic voltammetry; aptamer II on magnetic beads, LF captured by aptamer I; 1180 Hz shift at 100 ng/mL LF; 30 °C, 70 min per binding step; aptamer I 3 μmol/L on gold with MCH block; aptamer II beads stored in 10 mmol/L PBS; binding buffer, salt and pH not stated. To be noted: protein: commercial.
T2 sequence (P24627 20-708): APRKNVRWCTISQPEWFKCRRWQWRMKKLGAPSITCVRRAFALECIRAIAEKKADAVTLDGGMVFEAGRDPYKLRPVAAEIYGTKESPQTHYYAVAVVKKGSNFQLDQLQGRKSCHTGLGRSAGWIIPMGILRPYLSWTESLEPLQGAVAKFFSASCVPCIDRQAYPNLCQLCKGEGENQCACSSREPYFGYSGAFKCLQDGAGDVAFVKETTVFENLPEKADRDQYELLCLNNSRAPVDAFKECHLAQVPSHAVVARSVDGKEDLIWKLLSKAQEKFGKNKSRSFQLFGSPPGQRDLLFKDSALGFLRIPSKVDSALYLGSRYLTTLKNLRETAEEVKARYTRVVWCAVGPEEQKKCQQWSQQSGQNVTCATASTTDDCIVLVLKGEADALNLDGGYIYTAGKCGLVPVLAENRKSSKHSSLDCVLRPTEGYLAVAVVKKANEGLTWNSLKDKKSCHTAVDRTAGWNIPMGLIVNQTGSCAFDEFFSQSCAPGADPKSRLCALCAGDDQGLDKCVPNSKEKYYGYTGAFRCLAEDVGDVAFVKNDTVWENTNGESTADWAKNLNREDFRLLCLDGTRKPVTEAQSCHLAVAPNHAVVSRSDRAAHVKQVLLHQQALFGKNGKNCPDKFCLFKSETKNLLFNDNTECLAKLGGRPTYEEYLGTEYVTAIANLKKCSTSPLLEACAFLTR

In data set [2] the target is T2, lactoferrin (LF). Put plainly: QCM bond rupture sandwich; cyclic voltammetry; aptamer I on gold, 100 ng/mL LF; 30 °C, 70 min per binding step; aptamer I 3 μmol/L on gold with MCH block; aptamer II beads stored in 10 mmol/L PBS; binding buffer, salt and pH not stated. To be noted: protein: commercial.

As for “TGGTGCTGCCCCTAGTCTCCGGCTGCTTCTTGG [aptamer I]”, the binding signal (% of LF signal) in the data set with alpha-lactalbumin was 8.39. Regarding AGGCAGGACACCGTAACCGGTGCATCTATGGCTACTAGCTTTTCCTGCCT (ssDNA, 5'-SH-(CH2)6 as printed) [aptamer II], the binding result with lactoferrin (LF) [1] is reported as “binds”. In the case of TGGTGCTGCCCCTAGTCTCCGGCTGCTTCTTGG (ssDNA, 5'-SH-(CH2)6) [aptamer I], in the data set with lactoferrin (LF) [2], the binding result was “binds”.

The values above are taken from publication PMC11643816, “Determination of Lactoferrin Using High-Frequency Piezoelectric Quartz Aptamer Biosensor Based on Molecular Bond Rupture”.
